Assay: soluble on expression in E. coli; label from the status in PepcDB or PDB records

| Sequence | soluble on expression in E. coli |
| --- | --- |
| GGFDGHTHSAGKINVGRFINPNDARKNPVPGLSGQVARTEKTRAQVGYNTPNTYAIGYRYAKLGYTTICEAAIPLLAARHTHEEFKEIPILDKMGLSLFGSNWQVMEYIRDKEPEKLAAYIAWGLKASRGYGVKIVNPGGGEAWGWGRNVSGLYDPVPNFDVTPAEILLGLAEANERLQLPHSIHVHCNNLGKPGNYATTIETMKLLEKVKPSRDRQALHVTHVQFNAYAGTSWRDFETGAPMVADYINGANHLTFDLGQVIFGPAVTMTADGPVEYANSRMLHEKWSNQDIELEDASGVVPLFYSPKSFVNAVQWAIGLELALLVKDPWKVMFTTDSPNGGSFVNYPEAFTYLMSAKRREEVISGFSKMALDRMVLPGIDRELDFYELAVMTRSTQSKMYSMPEKGNLKVGSDADIAIYDILPGQVDPSTEYAKVKKAFSAASYTLKSGEVVVKDG | not soluble |
| MGSDKIHHHHHHMSVECFVTGGSGFVGQHLLAGLTAQGHKTWVLMRSPGNIERLKEQVGQLGGNPEYIHAVEGDISQEGLGLSEADKERVTSAAVFFHLAAQFSWGLTPERARTVNVQGALSVARLAASQRIRLLMVGGFMLQNLNHLASIGVDTQCPENTNWPAVYARVGGYEGSKLESHFAVIRYMQDADADYTIVHPATVCGHSENGHILDGQPLAELIRNLAQGRFKAIPGSASHWLPLVSVDYLVKMITCVAFDPSMANRQVLALYERTPNLQGMLGQIADTLKVKAPHRHIPIGLLRSILTIPGLATRLAISAESLNFIQTQRFDMGNSRQLERKYQFTHPDMTQALENTVRYVNGSLMKKSKSEGAGQRG | not soluble |
| GSHMSSLEKRLGKNEYFIITKSSPVRAILNDFAANYSIPVFISSSVNDDFSGEIKNEKPVKVLEKLSKLYHLTWYYDENILYIYKTNEISRSIITPTYLDIDSLLKYLSDTISVNKNSCNVRKITTFNSIEVRGVPECIKYITSLSESLDKEAQSK | soluble |
| MLNEIICAGFGGQGVLTAGKIIMYVAYKAEKKITWFPSYGNEMRGGSANCNVVVSDEKIANPCVKNPDILLGMNSVSVDKYESLMKKNGYMFVNESLVSKDRKYREDINVIKVPVTEIAQNLGNEKAANICMLGAMVKSLDLFTKEEFESGMCEYFENQGKGKFNSKNVEAFEAGYDYE | not soluble |
| MGSDKIHHHHHHMPPLDLTHIRQHHTVAELIALGKARRQVTPFEKLGTFTPVKRNASDYLKHVREMLVPELLPLRRERMSASAFAFFRGSVELMDYDLDYQSSTEIPAVVCGDAHIGNFGFYASPERRLVFDLNDFDEAGVHPWEWDLRRLLVSVLLAARDSNFKPKKVEKLIQAASASYREALKRMFDQTTLDRFYRDNEVQAVLNFGGAPEDTADLIASLVKKAQKRNSEQVVRKFTVTNSRGERQFKENAPRSVHIDRQTYQGLKAGISEYLLNVRTDVALLLSQYEVTDIIRHSVGVGSFGSLCYLVLLTSTDGSHMVLQIKEALPTRKVGSQSRPALTAAMELTEGQRIVSSQRILQATSDAFLGYFQMENKSFYVRQFRDMKESIDIPTLDWGQFQAYANTCAMILAKAHAQSPTAAMIRGYVGNSAKFDEAMAKWATAYVEQVDNDYQDFLDV | not soluble |
| MRTITFNELRKIKDSLPSGSMHRIADELGLHVDTVRNFFGGHNFKEGKSVGIHLEPGPDGGLVMLDDTTVLDRALKILDEINMSMQKEQATEPMQI | not soluble |
| GDKLLPKTLSKEIVSEPFAKNQLREKARLTNIKGLEIPRVSYTLDDDDFITDVETAKELKAKGDTVKFTTNKFKVFAAISDTVIHGSDVDLVNWVENALQSGLAAKERKDALAVSPKSGLEHMSFYNGSVKEVEGADMYDAIINALADLHEDYRDNATIYMRYADYVKIISVLSNGTTNFFDTPAEKVFGKPVVFTDAAVKPIVGDFNYFGINYDGTTYDTDKDVKKGEYLFVLTAWYDQQRTLDSAFRIAKA | soluble |
| MKQKIVLATGNKGKVKEMADVLSDFGFEVIAQTDLGIESPEETGLTFVENALLKARYASEKSGLPAIADDSGLVVSALNGAPGLYSARYAGEEGNDAKNREKLLAELAHIAQEQRQAKFVSCIVFLQHPTDPSPIIAEGECCGVIGFEEKGENGFGYDSLFFSPEQGCTFAELETAEKKKISHRAKALSVLKSKL | not soluble |
| MTYLVTGATGGLGGYALNYLKELVPMSDIYALVRSKEKGADLKAAGFNIRVGDYSDAESMKQAFAGIDRVLFVSGAPGNRQVEHENVINAAKKAGVSYIAYTSFAGADKSTSALAEDHFFTEKVIEKSGIAHTFLRNNWYFENEMPMIGGALSAGKFVYAAENGKVGWALKREYAEVAAKAVAGAGFPEILELSGPLMTYEELTKALKEATGKDFDVISSDDKGFVENLVSVGLPQPVAEMFLSFQHDIKNDQLDVTSDDFEKALGKPLTNRVDALRELLKLEHHHHHH | soluble |
| MGSDKIHHHHHHMEEFVFFIEGNVNHPLTIDPTVWIFDERKVDLTTYFQELATKEDEMTAYKKAISKQWDKEITKGSEPPRPDTNGNVIKYEKQKLIHGSFGMPFMPFLKNSEPDSDAKTVTVVCADGNEHSFPIDEAAQFILGFAKNGSPLREDGPVHVYFGDGSNESTPIINVIRFSVS | not soluble |
| GPGSMSTALFVQATFFNTDNKSTDNKLMTTAAVSHNQSSQDNIMVVNLQKELQKRLEEDAGVKTLYITMGGEPRFNRALFENKSMALFVGDSMSIHHFTDDYGRITRRLLILYPMTFSRREEIPKQQILKKVEKAANQPEDNCGIEVVDLVELQKKHVYLEGQAAACYSYNGEFVYMALSGRSSEQVLSIICAPENLNIPNEKRFVFTAVLPHRSKENGRVIGEDVIPYTSLVGWCGKGICAWGLEFLRFPSEKDQEAFYEHLENNYSKVINLDESELRAFCGNAREVAIAHGNGERRVLCISHQALNALRPFKRQMLEDWYGLGNILPFYADVLERRAGRSVGSLVSVPVIHGEVLPLPGELGVIEAAKVDIKDGGC | soluble |
| MGGGPALNRDSSRHARPFISSPVKTLAIIPAFNEAQAIGPVLGDLPDGWVDEVVVVNNASTDATKANARAAGATVVDEPQQGYGAACLRGIAYAETRQPDVVVFLDGDYSDHPEELPRLVEPIAADEADFVVGSRIRGDAEPGALLPQAQVGNRFACSLMARLWGADYTDLGPFRAIRFRDLLALDMQDETFGWTIEMQIRALEAGLRVEEVPVSYRRGIGPSKITGTLSGTVKASAKILWTIGRMAATTHRRAPRLRERVDRARTDAPTPNPGGLEHHHHHH | not soluble |
| MGHHHHHHSHPLKMETSGMTTPSLKTDGGRRTATSPPPTTSQTIISTIPSTAMHTRSTAAPIPILPERGVSLFPYGADAGDLEFVRRTVDFTSPLFKPATGFPLGSSLRDSLYASQAGTLWPWWLRSGTMLTSPLVGGPHFIRNTRRSMVNTAC | not soluble |
| VIHLDSKNFDSFLASHEIAVVDFWAEWCAPCLILAPIIEELAEDYPQVGFGKLNSDENPDIAARYGVMSLPTVIFFKDGEPVDEIIGAVPREEIEIRIKNLLGE | soluble |
| MGSDKIHHHHHHMQPDLLVFGGDLISGPIPLETLDLIYDLKSKYRTASVLGNNDQDIIDSYENKKLSLSNKAQEQIKWVTRLLNEKQILDLKDMPININVGKYFFCHAIADDNRTIFTQKTRISNIKQLFLEVISPFIICGHTHLQFKLKIGSQQIINAGSVGMPFSDKKGAQWLWIENNNFQFRRTLFDEDIAIKNMKNSDFPFVNQFIEEYVKNTVKVRTGYKILRRLEENNRLRK | not soluble |
| MDPKKADIIRLEALPQDLLGGIVAKVGATTAEDFHNCILVCKELGASANDKHVFKTLNLALLVKKPLSGTQTPSYYENMS | soluble |
| MAHHHHHHMKRIVAPRRWSAINRVEHPPLMPKQLLQSVCGGLRWLESKSLAEFLAKRAIEEGFPCTKKQQRIFDARPPSSRPALRKSRLHKKCPARRSGGDVQRTEGSLEAPRTTGASGALVSSGAALALNSSAFDALVPLAKRKRLVSYDVLDCTFGSGFHTGVVLENGRPYTRVVAMDCDVEATVSAREIVDEFGADRFRFYARPMSEAKAMFGERSFDAVMIDPGPSSTQLENPERGFLLNDESDHALDMRYGPTHGLGALEYLNTVPQHALSGALASYELLTPQQSMKLARAIRQRRPFDGAQRVLEAVEEAGNELPEEGWGTQGSRRKTSMSWNFMTSLRCIVNHERHELSEALQNALLLLRTDGRLVVFSRLPWEEKLISTTISQHPHALLSYSEAIPIEDVQEHGHSRHTKMWIVTRTQGSSYVLKNSQTLTGEAVQESSMRWMSGLFAGQTFGFPANNFTFENKDGKDWAAVRRNKNSPPFDSDDDPRG | not soluble |
| MEVEVEKDCRTECSREREIEKERSKDEFHGLIEIDGECMQSGNRKWKRIDSAVKVAKKEKKKKMKDEEKKKEDEDNLQHTIQQSE | soluble |
| SNAMAHEAQKAIARNSLLIRSLPEQHVDALLSQAVWRSYDRGETLFLQEEKAQAIHVVIDGWVKLFRMTPTGSEAVVSVFTRGESFGEAVALRNTPYPVSAEAVTPCEVMHIPSPVFVSLMRRDPEICISILATTFGHLHSLVAQLEQLKAQTGAQRVAEFLLELCDCDTGACEVTLPYDKMLIAGRLGMKPESLSRAFSRLKAAGVTVKRNHAEIEDIALLRDYAESDPADSWSES | soluble |
| MTDIQDVISPKLAVAIANPIFPAVDSLLRSGRHISTEHLDNHAFLMDFQNELDGFYRRYNVELIRAPEGFFYLRPKATTLIARSVLSELEMLVGKVLCYLYLSPERLAQQGIFSTQEVYDELLNLADEGKLLKAVNQRSSGSDLDKQKLAEKVRAAIGRLRRLGMIQTVGEQNSGKFTISESVFRFGAEVRSGDDPLESQARLIRDGEAATPDSLALEKQAQLMENDTKSADEIDEEFDGEQELEHHHHHH | soluble |
| MVKKMCQDYLSSSGLCSQETLEINNDKVAESLGITEFLRKKEIHPDNLGPKHLSRDMDGEQLEGASSEKREREAAEEGLASVKRPRREALSNDTTESLAANSRGREKPRPLHALAAGTIVSQEEDIVTVTDAEGRACGWAR | soluble |
| MREETKCALIIDESLPLGLIANTAAILGAALGKNKPDLIGETVTDGSGIDHLGIVKIPIPILKGNAELLHQLSQKLLTDEFNDILTVDFTDVAQSIHTYEAYIEAFQSTAASDYRYFGIGICGDKKKVARLTGSLGLLRLEHHHHHH | soluble |
| MSGDFDTIRDASSPDEVQLVRLLEEKIKSLQIEIENLRKELNYYKAEMEKMLSPPLIEAVVLDVLPDGRVLVRSSSGPNLVVNIASHIDQKLIKPGISVALNQRGSTILEVLPQKE | soluble |
| MSPAYLCARPRTRASVTFRPTCGVNLPFHADRARTVSTSTNSATVLWLGYQAPNSISTAVSGAVANHAAKDLQKFQTALQSRNPDQRKVVIGYSYGSTVAGKAASSSELDVRARHFRGDGYSIALNNAVEIKGLEHHHHHH | not soluble |
| MDTFRVFSLFAGISINNSHLLEFAVKAGREVMELNEHRATLFNKNVPSRGVKRVTAITNREREAVLRIEFPNVDVTDIDFDLFQARESTDKPLDVAAAIAYRLLLGSGLPQKFGCSDEVLLNFILQCRKKYRNVPYHNFYHVVDVCQTIYTFLYRGNVYEKLTELECFVLLITALVHDLDHMGLNNSFYLKTESPLGILSSASGNKSVLEVHHCNLAVEILSDPESDVFGGLEGAERTLAFRSMIDCVLATDMARHSEFLEKYLEIMKTSYNVDDSDHRQMTMDVLMKAGDISNVTKPFDVSRQWAMAVTEEFYRQGDMEKERGVEVLPMFDRSKNMELAKGQIGFIDFVAAPFFQKIVDACLQGMQWTVDRTKSNRAQWERVLEARSTG | not soluble |
